# According to publication PMC7577971:
# Target: CR3022/S1 complex (one monomer of the spike ectodomain with one bound CR3022 Fab) (SARS-CoV-2 | human) (UniProt P0DTC2)
# Assay: cryo-EM structure
substance,measurement,value
CR3022/S1 complex (one monomer of the spike ectodomain with one bound CR3022 Fab) (from UniProt P0DTC2 14-1208),stoichiometry N,2
